From patent US11059842B2, “Monosaccharide amine and 3-nitro-2-phenyl-2H-chromene based inhibitors of glucose kinases” (UNIVERSITY OF SOUTH CAROLINA, priority 2019, dated 2021)

B1: TcGlcK (Trypanosoma cruzi strain CL Brener) (protein)
chain: MNIKELSLHELCEELKTPAWNVPLTFVGDVGGTSARMGFVREGKNDSVHACVTRYSMKRKDITELIEFFNEIIELMPASVIKRVKAGVINVPGPVTGGAVGGPFNNLKGIARLSDYPKALFPPGRSAILNDLEAGGFGVLAVSDAHVFSEYFGVMWEGTQWRTCEQEPAGSVIGRGRCLVLAPGTGLGSSLIYYNPMNQQHIVVPLELGSQTIPMRKDIDYIQTLHAELKLLPNYENMVSGAGLEFHYRQVVRGSRPPCSAGEIAKLASEGDANACKAMKKYHEYLMRVGSEASMALLPLTIVLVGDNIVNNAFFYRNPQNLKEMHREALNHEMERFGFQSRVTYLRQKKLLNLNLMGCYRCGLDLSVGKKQKAQL
B2: HsHxKIV (Homo sapiens) (protein)
chain: MLDDRARMEAAKKEKVEQILAEFQLQEEDLKKVMRRMQKEMDRGLRLETHEEASVKMLPTYVRSTPEGSEVGDFLSLDLGGTNFRVMLVKVGEGEEGQWSVKTKHQMYSIPEDAMTGTAEMLFDYISECISDFLDKHQMKHKKLPLGFTFSFPVRHEDIDKGILLNWTKGFKASGAEGNNVVGLLRDAIKRRGDFEMDVVAMVNDTVATMISCYYEDHQCEVGMIVGTGCNACYMEEMQNVELVEGDEGRMCVNTEWGAFGDSGELDEFLLEYDRLVDESSANPGQQLYEKLIGGKYMGELVRLVLLRLVDENLLFHGEASEQLRTRGAFETRFVSQVESDTGDRKQIYNILSTLGLRPSTTDCDIVRRACESVSTRAAHMCSAGLAGVINRMRESRSEDVMRITVGVDGSVYKLHPSFKERFHASVRRLTPSCEITFIESEEGSGRGAALVSAVACKKACMLGQ

Assays:
[1] = substrate: O=C[C@H](O)[C@@H](O)[C@H](O)[C@H](O)CO; experiment: TcGlcK Michaelis-Menten kinetics and substrate range; type: biochemical, Trypanosoma cruzi; details: other: substrate; triplicate runs
Method: D-Glucose was also tested as a control with alternative substrates. The protein expression work for TcGlcK and HsHxKIV were each made possible through the E. coli strain BL21(DE3) system. Purification of each enzyme was performed through cobalt-NTA chromatography followed by size-exclusion chromatography; assessment of purity was performed by SDS-PAGE. In enzymatic assays, a time-optimum (TOPT) was determined to be 120 seconds for TcGlcK and 600 seconds for HsHxKIV; all assays were run at room temperature. A general reaction scheme included a first reaction in which the monosaccharide, ATP, and Mg^2+ react with the enzyme, e.g., TcGlcK, forming a hexose-phosphate and ADP. […] Fluorescence of NADPH was monitored using a fluorescence microplate reader with […] wavelengths of 340 nm and 485 nm, respectively.
(§1) FIG. 4 and FIG. 5 present typical Michaelis-Menten enzyme kinetic plots for D-glucose. […] Michaelis-Menten constant (KM) values, which were used as the set final assay concentrations of substrates D-glucose and ATP for the primary screens, were determined for both TcGlcK and HsHxKIV in triplicate runs. […]
All phosphorylated hexoses were shown getting converted into their corresponding products by G6PDH, in abundant quantities through a 30-second time frame. […]

[2] = substrate: O=C[C@H](O)[C@@H](O)[C@H](O)[C@H](O)CO; experiment: HsHxKIV Michaelis-Menten kinetics; type: biochemical, Homo sapiens; details: other: substrate; triplicate runs
Method: D-Glucose was also tested as a control with alternative substrates. The protein expression work for TcGlcK and HsHxKIV were each made possible through the E. coli strain BL21(DE3) system. Purification of each enzyme was performed through cobalt-NTA chromatography followed by size-exclusion chromatography; assessment of purity was performed by SDS-PAGE. In enzymatic assays, a time-optimum (TOPT) was determined to be 120 seconds for TcGlcK and 600 seconds for HsHxKIV; all assays were run at room temperature. A general reaction scheme included a first reaction in which the monosaccharide, ATP, and Mg^2+ react with the enzyme, e.g., TcGlcK, forming a hexose-phosphate and ADP. In a second reaction, hexose-phosphate with the assistance of glucose-6-phosphate dehydrogenase (G6PDH) and NADP^+ was converted to the lactone form of the hexose-phosphate and NADPH. Fluorescence of NADPH was monitored using a fluorescence microplate reader with […] wavelengths of 340 nm and 485 nm, respectively.
as §1

Protein	Km [1]	Km [2]
B1	0.40 mM	
B2		43 mM
